In patent CN115043940A (TIANCHEN BIOMEDICAL SUZHOU CO LTD, dated 2022) one finds Kd, koff and kon data, which are given here for two molecules.

For experiment [1], the target named is T1, 人血清白蛋白(Human Serum Albumin,HSA) (human, UniProt P02768 25-609).
T1 construct: The only source named is native HSA (abcam ab205808), for immunisation; also called HSA蛋白; HSA抗原
Briefly: Octet BLI, biotinylated HSA on SA sensor, VHH in solution.

Experiment [2] addresses T2, 食蟹猴血清白蛋白 (cynomolgus monkey (食蟹猴), UniProt A2V9Z4 25-608, biotin-labelled (sites not given)).
T2 construct: Biotin-labelled and loaded on SA sensors in the Octet assay; also called albumin-macaca; alb-ma
Nature of the experiment: Octet BLI, biotinylated cynomolgus serum albumin on SA sensor, VHH in solution.

T1 sequence (P02768 25-609 limits assumed): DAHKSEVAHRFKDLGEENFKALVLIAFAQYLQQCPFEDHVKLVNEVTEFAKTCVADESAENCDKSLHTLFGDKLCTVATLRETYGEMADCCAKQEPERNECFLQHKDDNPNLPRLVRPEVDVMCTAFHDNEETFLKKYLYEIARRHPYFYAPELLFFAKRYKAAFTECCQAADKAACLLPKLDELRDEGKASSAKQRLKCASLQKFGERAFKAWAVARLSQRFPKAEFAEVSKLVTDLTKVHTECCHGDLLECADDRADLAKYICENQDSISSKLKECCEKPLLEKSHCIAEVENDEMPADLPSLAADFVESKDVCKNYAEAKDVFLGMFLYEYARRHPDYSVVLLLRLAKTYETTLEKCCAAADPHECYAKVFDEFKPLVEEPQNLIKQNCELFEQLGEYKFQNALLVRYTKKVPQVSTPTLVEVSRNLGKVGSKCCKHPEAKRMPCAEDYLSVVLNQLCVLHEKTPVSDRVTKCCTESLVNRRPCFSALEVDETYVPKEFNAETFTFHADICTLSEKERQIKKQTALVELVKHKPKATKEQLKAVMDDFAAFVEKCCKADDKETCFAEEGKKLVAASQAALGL
T2 sequence (A2V9Z4 25-608 limits assumed): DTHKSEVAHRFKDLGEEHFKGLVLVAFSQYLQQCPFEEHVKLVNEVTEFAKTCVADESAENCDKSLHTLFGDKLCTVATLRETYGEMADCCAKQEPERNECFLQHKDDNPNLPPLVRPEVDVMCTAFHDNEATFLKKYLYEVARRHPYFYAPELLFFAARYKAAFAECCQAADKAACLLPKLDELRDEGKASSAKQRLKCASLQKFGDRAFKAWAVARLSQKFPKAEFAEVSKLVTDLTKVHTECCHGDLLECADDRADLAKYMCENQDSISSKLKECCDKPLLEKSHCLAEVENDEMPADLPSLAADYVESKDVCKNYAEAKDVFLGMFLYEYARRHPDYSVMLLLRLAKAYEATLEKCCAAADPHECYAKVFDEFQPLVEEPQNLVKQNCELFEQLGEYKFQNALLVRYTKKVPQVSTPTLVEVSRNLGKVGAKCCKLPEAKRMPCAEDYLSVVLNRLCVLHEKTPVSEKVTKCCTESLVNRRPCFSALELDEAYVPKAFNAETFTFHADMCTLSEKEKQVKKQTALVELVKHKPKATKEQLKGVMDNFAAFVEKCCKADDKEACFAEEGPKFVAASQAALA

B1: 单域抗体LB21 (VHH)
VHH: QVQLVESGGGLVQPGGSLRLSCAASRIIFDVYNLAWFRQAPGKERELVASITSGLSTDYATTVKGRFIISRDNAKNTVYLQMNNLKPEDTAVYYCTANSRTTWYYWGQGTLVTVSS
notes: not shown: C-terminal 6xHis-tag and HA-tag
On to B1, for which, in experiment [1], the Kd worked out at 1.24 nM, the koff worked out at 0.000687 s⁻¹ and the kon is 554000 M⁻¹ s⁻¹. In experiment [2], this molecule showed a dissociation constant (Kd) of 0.217 nM, a koff of 2.69e-05 s⁻¹ and a kon of 124000 M⁻¹ s⁻¹.

B2: 单域抗体LB22 (VHH)
VHH: QVQLQESGGGVVQPGGSLRLSCTASGFTFSVYAMGWYRQAPGKDCELVGLITSTSDTRYADSVKGRFSISRDNAKKTVYLQMNRLKPEDTAVYYCMAGNSWGATVQAMCKSDYDYWGQGTQVTVSS
notes: as for B1
In experiment [1], B2 returned a dissociation constant (Kd) of 0.109 nM, a koff of 0.00014 s⁻¹ and a kon of 1.29e+06 M⁻¹ s⁻¹. Also, in experiment [2], the Kd is 0.708 nM, the koff is 6.47e-05 s⁻¹ and the kon worked out at 91300 M⁻¹ s⁻¹.
